Substitutions are numbered along the chain they refer to. Names and notes keep the numbering of the source. Where two headings read alike, the source gives them in different places.
Experiments:
[1] = target: T1, CobB (Escherichia coli, UniProt P75960); conditions: 10 mM NAM, 37 °C, 2 h; result in words
T1 sequence (P75960 1-279): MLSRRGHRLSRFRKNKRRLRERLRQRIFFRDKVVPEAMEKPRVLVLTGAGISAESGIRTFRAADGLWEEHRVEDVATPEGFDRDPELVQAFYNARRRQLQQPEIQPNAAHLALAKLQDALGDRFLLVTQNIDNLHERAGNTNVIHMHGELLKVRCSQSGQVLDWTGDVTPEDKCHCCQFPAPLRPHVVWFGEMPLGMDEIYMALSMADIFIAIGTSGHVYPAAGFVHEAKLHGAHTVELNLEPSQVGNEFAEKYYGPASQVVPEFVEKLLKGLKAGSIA

[2] = target: YiaC; assay: ITC affinity of recombinant YiaC with acyl-CoA; format: binding, E. coli; conditions: for Kd: cell 50 μM YiaC titrated with 500 μM acyl-CoA, 37 °C (method), three biological repetitions; for binding (Bin): result in words
Protocol: (§1) This method was described previously. […] The volume of the first injection was 0.5 μl of 500 μM actyl-CoA (or actylated peptides), and the following 18 injections were 2.0 μl. The binding isotherm was fit with the Origin 8.0 software (OriginLab). Each group had three biological repetitions.

[3] = target: T2, YiaC (Escherichia coli, UniProt P37664); assay: Isothermal titration calorimetry (MicroCal PEAQ-ITC) with acyl-CoA (750 uM in syringe) titrated into YiaC (75 uM in cell) at 25.1 °C according to the data sheet; the methods text gives 500 uM, 50 uM and 37 °C.; format: binding; conditions: n = 3
T2 construct: recombinant, pET28a vector, expressed in E. coli BL21 (λDE3), purified on HisPur Ni-NTA resin
Protocol: as §1

[4] = test system: whole-cell lysates; assay: Whole-cell lysate reaction, lactate to La-CoA; design: species or system E. coli MG1655; conditions: result in words
Protocol: This method was described previously. In detail, E. coli MG1655 was cultured in LB medium at 37 °C in shaken flasks overnight and harvested the cells by centrifugation, then added lysate buffer [[…], […] and 5 mM MgCl2, PH 7.0] and broke cells by ultrasound on ice, the supernatant was extracted by high-speed centrifugation as the whole protein lysate. Then measured protein concentration by BCA and adjusted the protein concentration to 2 mg/ml. […] Each reaction was performed three biological repetitions.
(§2) Samples dissolved in water were analyzed by an Orbitrap Exploris 480 (Thermo Scientific) mass spectrometer in positive ESI mode using the settings described previously[65],[66]. […] An Orbitrap Exploris 480 (Thermo Fisher Scientific) was employed for MS analysis. Spray voltage was set to 3.5 kV, funnel RF level at 40, and ion transfer tube temperature at 320 °C. Data were collected by Xcalibur (v.4.0.27.19). The orbitrap mass analyzer was used as the MS1 detector with 120,000 resolution. The normalized AGC target and maximum injection time were set at 70% /standard for MS1. The MS2 detector was used 15,000 resolution. Targeted mass setting is lactyl-CoA: 840.1436, acetyl-CoA: 810.1330 and propionate CoA: 824.1487. […] The relative intensity of acyl-CoA was analyzed by Xcalibur (v.4.0.27.19).

[5] = test system: E. coli MG1655; assay: Growth curve; format: cell-based; conditions: 37 °C, result in words
Protocol: As previous described, the strains were cultured in LB medium overnight, then diluted 1:1000 in LB or M9 medium (with 1% glucose or 1% pyruvate) and incubated at 37 °C with 96-well plates, and each strain was added to three wells. The absorbance at 600 nm at initiation was set as a blank and measured every hour using a spectrophotometer. All the growth dynamic curves were drawn using Origin 8.0.

[6] = test system: PykF; conditions: in vitro; result in words
[7] = test system: PykF; conditions: for Relative activity of PykF: intracellular; for intracellular PykF activity: result in words
[8] = test system: Acs; assay: In vitro assay for Acs activity; format: biochemical, E. coli; conditions: result in words
Protocol: This method was performed as described previously. In detail, the purified Acs or PrpE with a final concentration of 0.3 μM were added in the reaction buffer [50 mM HEPES, 10 mM MgCl2, 2.5 mM ATP, 0.5 mM HSCoA, 3 mM phosphoenolpyruvate, 0.1 mM NADH, 1 U pyruvate kinase, 1.5 U lactate dehydrogenase, 5 U myokinase, 10 mM DTT, and 0.2 mM organic acid substrate (acetate, lactate and propionate), PH 7.5] at 25 °C for 30 min. […] Each reaction was performed three biological repetitions.
as §2

[9] = test system: PncB; assay: In vitro assay for PncB activity; format: biochemical, E. coli; conditions: for enzymatic activity vs wild type: in vitro, result in words
Protocol: The activity of purified PncB, PncB^K381Q, and PncB^K381R were measured as described. In detail, the purified proteins were added in the reaction buffer [50 mM Tris-HCl, 10 mM MgCl2, 2.5 mM dithiothreitol, 1 mM ATP, […] of bovine serum albumin, 1 mM nicotinic acid and 1 mM 5-phosphoribosyl-1-pyrophosphate (pH 7.5)] at 37 °C for 2 h. The reactions were measured by HPLC-MS/MS to detect the production of […]. Separation was performed on a Vanquish UHPLC system (Thermo Fisher Scientific) with an ACQUITY UPLC BEH C18 column (100 × 2.1 mm, 1.7 μm). Mobile phase A was 0.1% formic acid in water. Mobile phase B was 0.1% formic acid in methanol. […] Injection volume was 2 μl. Nicotinic acid detection was performed on an Orbitrap Exploris 480 spectrometer (Thermo Fisher Scientific, Bremen, Germany) operated with ESI probe. Data were acquired under the following parameters: sheath gas ((N2), 35 Arb; aux gas (N2), 10 Arb; spray voltage, 3500 V (positive mode); and in transfer tube temperature, 320 °C. An SIM was applied for data acquisition.

[10] = Fig. 6e, LB medium 37 °C, replicate 1
[11] = Fig. 6e, LB medium 37 °C, replicate 2
[12] = Fig. 6e, LB medium 37 °C, replicate 3
[13] = Fig. 6g, M9 with 1% glucose, replicate 2
[14] = Fig. 6g, M9 with 1% glucose, replicate 3
[15] = replicate 1, 37 °C, 2 h, HPLC-MS/MS

T2 sequence (P37664 whole entry): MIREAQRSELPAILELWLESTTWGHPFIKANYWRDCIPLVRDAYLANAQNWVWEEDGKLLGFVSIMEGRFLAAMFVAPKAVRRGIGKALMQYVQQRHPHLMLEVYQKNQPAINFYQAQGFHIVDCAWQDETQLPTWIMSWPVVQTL

NC(=O)c1cccnc1 [NAM, nicotinamide, reference compound]
inhibition of CobB delactylation [1]: the delactylation reaction could be inhibited by nicotinamide (NAM)
inhibition, deacetylation compared with delactylation [1]: more effective for deacetylation than delactylation

CC(=O)SCCNC(=O)CCNC(=O)[C@H](O)C(C)(C)COP(=O)(O)OP(=O)(O)OC[C@H]1O[C@@H](n2cnc3c(N)ncnc32)[C@H](O)[C@@H]1OP(=O)(O)O [acetyl-CoA, Acetyl coenzyme A, reference compound]
Kd [2]: 5.57 µM
binding (Bin) [2]: Binding

CC(=O)SCCNC(=O)CCNC(=O)[C@H](O)C(C)(C)COP(=O)(O)OP(=O)(O)OC[C@H]1O[C@@H](n2cnc3c(N)ncnc32)[C@H](O)[C@@H]1OP(=O)(O)O [acetyl-CoA, acetyl coenzyme A]
Kd [3]: 5.57 µM

CC(O)C(=O)O (stereo not drawn) [lactate, reference compound]
conversion to lactyl-CoA / lactyl-CoA level [4]: could be effectively converted to lactyl-CoA

CC(O)C(=O)SCCNC(=O)CCNC(=O)[C@H](O)C(C)(C)COP(=O)(O)OP(=O)(O)OC[C@H]1O[C@@H](n2cnc3c(N)ncnc32)[C@H](O)[C@@H]1OP(=O)(O)O (stereo partly drawn) [lactyl-CoA, lactyl-coenzyme A]
Kd [2]: 6.83 µM
binding (Bin) [2]: strong binding
binding (Bin) ([2]; listed as laCoA): Binding
Kd [3]: 6.83 µM
conversion to lactyl-CoA / lactyl-CoA level [4]: low level

PykF^K382Q
growth ([5]; LB medium): grew the slowest
growth ([5]; M9 with 1% glucose): grew slowest
enzymatic activity vs wild type [6]: significantly decreased
Relative activity of PykF [7, 10]: 0.52
Relative activity of PykF [7, 11]: 0.47
Relative activity of PykF [7, 12]: 0.58
Relative activity of PykF [7, 13]: 0.4941
Relative activity of PykF [7, 14]: 0.4204
intracellular PykF activity ([7]; LB medium): lowest activity
intracellular PykF activity ([7]; M9 with 1% glucose): lowest PykF activity

PykF^K382R: PykF mutant, unmodified K mimic; pPykF^K382R = overexpressing strain
growth ([5]; LB medium): fastest growth
growth ([5]; M9 with 1% glucose): grew fastest
enzymatic activity vs wild type [6]: increased
Relative activity of PykF [7, 10]: 1.38
Relative activity of PykF [7, 11]: 1.06
Relative activity of PykF [7, 12]: 1.54
Relative activity of PykF ([7]; Fig. 6g, M9 with 1% glucose, replicate 1): 1.27
Relative activity of PykF [7, 13]: 1.36
Relative activity of PykF [7, 14]: 1.3593
intracellular PykF activity ([7]; LB medium): highest activity
intracellular PykF activity ([7]; M9 with 1% glucose): highest PykF activity

Succinyl coenzyme A [succinyl-CoA, reference compound]
binding (Bin) [2]: no binding

B1: Acs: acetyl-CoA synthetase (protein, UniProt P27550 1-652, looked up)
Acetyl-coenzyme A synthetase: MSQIHKHTIPANIADRCLINPQQYEAMYQQSINVPDTFWGEQGKILDWIKPYQKVKNTSFAPGNVSIKWYEDGTLNLAANCLDRHLQENGDRTAIIWEGDDASQSKHISYKELHRDVCRFANTLLELGIKKGDVVAIYMPMVPEAAVAMLACARIGAVHSVIFGGFSPEAVAGRIIDSNSRLVITSDEGVRAGRSIPLKKNVDDALKNPNVTSVEHVVVLKRTGGKIDWQEGRDLWWHDLVEQASDQHQAEEMNAEDPLFILYTSGSTGKPKGVLHTTGGYLVYAALTFKYVFDYHPGDIYWCTADVGWVTGHSYLLYGPLACGATTLMFEGVPNWPTPARMAQVVDKHQVNILYTAPTAIRALMAEGDKAIEGTDRSSLRILGSVGEPINPEAWEWYWKKIGNEKCPVVDTWWQTETGGFMITPLPGATELKAGSATRPFFGVQPALVDNEGNPLEGATEGSLVITDSWPGQARTLFGDHERFEQTYFSTFKNMYFSGDGARRDEDGYYWITGRVDDVLNVSGHRLGTAEIESALVAHPKIAEAAVVGIPHNIKGQAIYAYVTLNHGEEPSPELYAEVRNWVRKEIGPLATPDVLHWTDSLPKTRSGKIMRRILRKIAAGDTSNLGDTSTLADPGVVEKLLEEKQAIAMPS
formation of lactyl-CoA from lactate [8]: neither Acs nor PrpE could catalyze the formation of lactyl-CoA from lactate

B2: PncB^K381Q (protein, UniProt P18133 2-400, looked up, variant K381Q)
Nicotinate …: TQFASPVLHSLLDTDAYKLHMQQAVFHHYYDVHVAAEFRCRGDDLLGIYADAIREQVQAMQHLRLQDDEYQWLSALPFFKADYLNWLREFRFNPEQVTVSNDNGKLDIRLSGPWREVILWEVPLLAVISEMVHRYRSPQADVAQALDTLESKLVDFSALTAGLDMSRFHLMDFGTRRRFSREVQETIVKRLQQESWFVGTSNYDLARRLSLTPMGTQAHEWFQAHQQISPDLANSQRAALAAWLEEYPDQLGIALTDCITMDAFLRDFGVEFASRYQGLRHDSGDPVEWGEKAIAHYEKLGIDPQSKTLVFSDNLDLRKAVELYRHFSSRVQLSFGIGTRLTCDIPQVKPLNIVIKLVECNGKPVAKLSDSPGKTICHDQAFVRALRKAFDLPHIKKAS
enzymatic activity vs wild type [9]: significantly decreased
Residual percentage of reaction ([9]; replicate 1, relative to C): 0.3998
Determination of nicotinic acid [9, 15]: 117663852
Determination of nicotinic acid ([9]; replicate 2): 149776081
Residual percentage of reaction ([9]; replicate 2, relative to C): 0.4956
Determination of nicotinic acid ([9]; replicate 3): 106239984
Residual percentage of reaction ([9]; replicate 3, relative to C): 0.3796

B3: PncB^K381R (protein, UniProt P18133 2-400, looked up, variant K381R)
Nicotinate …: B2 Nicotinate … with Q380R
enzymatic activity vs wild type [9]: increased
Residual percentage of reaction ([9]; replicate 1, relative to C): 0.01962
Determination of nicotinic acid [9, 15]: 5775041
Determination of nicotinic acid ([9]; replicate 2): 6028387
Residual percentage of reaction ([9]; replicate 2, relative to C): 0.01995
Determination of nicotinic acid ([9]; replicate 3): 5793798
Residual percentage of reaction ([9]; replicate 3, relative to C): 0.0207

B4: PncB: nicotinate phosphoribosyltransferase, wild type (protein, UniProt P18133 2-400, looked up)
Nicotinate …: B2 Nicotinate … with Q380K
Residual percentage of reaction ([9]; replicate 1, relative to C): 0.08118
Determination of nicotinic acid [9, 15]: 23891965
Determination of nicotinic acid ([9]; replicate 2): 25485329
Residual percentage of reaction ([9]; replicate 2, relative to C): 0.08433
Determination of nicotinic acid ([9]; replicate 3): 18539215
Residual percentage of reaction ([9]; replicate 3, relative to C): 0.06624
